Measured values: patent US20100015644A1

Columns and labels:
[1] = target: FcγRIIIaECD176VHis batch 646-005-EP (CHO-K1SV derived) (human) (UniProt P08637); assay: ELISA; FcγRIIIa176V directly coated or captured by anti-polyhistidine mAb
[2] = target: CD4 on CD4+ T cells (human) (UniProt P01730); assay: cell-based or functional assay
[3] = target: FcγRIIIaECD176VHis (HEK-293F, prepared as in Example 4) (human) (UniProt P08637); assay: AlphaScreen bridging assay: His-tagged FcγRIIIa176V on Ni-acceptor beads and sCD4-biotine on SA-donor beads; signal needs binding to both
[4] = target: Fc receptor on NK cells (effector cells of the ADCC assay) (human) (UniProt P08637); assay: cell-based or functional assay
[5] = target: FcγRIIIaECD176VHis (HEK-293F, prepared as in Example 4) (human) (UniProt P08637); assay: ELISA, plate-bound FcγRIIIa176V; relative potency from EC50
sCD4 = sCD4 (UniProt P01730); assay: ELISA, plate-bound sCD4 2.0 µg/ml; relative potency from EC50

Sequence of FcγRIIIaECD176VHis (HEK-293F, prepared as in Example 4) (human) (P08637 other isoform, or with tags, fused parts or gaps limits assumed): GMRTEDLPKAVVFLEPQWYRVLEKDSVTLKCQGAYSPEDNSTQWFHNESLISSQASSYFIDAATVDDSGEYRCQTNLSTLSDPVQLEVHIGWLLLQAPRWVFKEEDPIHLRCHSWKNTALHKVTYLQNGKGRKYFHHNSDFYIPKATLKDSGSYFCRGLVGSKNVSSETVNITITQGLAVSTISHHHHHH
Sequence of Fc receptor on NK cells (effector cells of the ADCC assay) (human) (P08637 17-254): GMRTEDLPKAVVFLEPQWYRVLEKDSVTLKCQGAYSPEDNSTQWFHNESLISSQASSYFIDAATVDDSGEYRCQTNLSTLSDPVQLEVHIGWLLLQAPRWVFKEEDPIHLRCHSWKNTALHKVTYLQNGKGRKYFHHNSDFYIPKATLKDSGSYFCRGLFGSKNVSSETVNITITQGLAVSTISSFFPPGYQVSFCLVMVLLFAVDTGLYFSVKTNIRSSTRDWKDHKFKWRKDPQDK
Sequence of FcγRIIIaECD176VHis batch 646-005-EP (CHO-K1SV derived) (human) (P08637 other isoform, or with tags, fused parts or gaps limits assumed): as the sequence (P08637 other isoform, or with tags, fused parts or gaps limits assumed) above

Row | Substance | binding capacity (% of the reference batch) (% of reference batch MRS-CD4-001) [3] | Relative potency (ADCC), Exp 1 (relative to MRS-CD4-001) [4] | Relative potency (ADCC), Exp 2 (relative to MRS-CD4-001) [4] | Relative potency (ADCC), Exp (third) (relative to MRS-CD4-001) [4] | Relative potency (ADCC), mean (relative to MRS-CD4-001) [4] | relative potency (FcγRIIIa176V binding), Exp 1 (relative to MRS-CD4-001) [5] | relative potency (FcγRIIIa176V binding), Exp 2 (relative to MRS-CD4-001) [5] | relative potency (FcγRIIIa176V binding), mean (relative to MRS-CD4-001) [5] | relative potency (sCD4 binding), Exp 1 (relative to MRS-CD4-001) (sCD4) | relative potency (sCD4 binding), Exp 2 (relative to MRS-CD4-001) (sCD4) | relative potency (sCD4 binding), mean (relative to MRS-CD4-001) (sCD4) | other results
1 | HuMax-EGFr (antibody) |  |  |  |  |  |  |  |  |  |  |  | EC50 ratio of the two HuMax-EGFr batches [1]: 2
2 | zanolimumab (batch not stated) (antibody) |  |  |  |  |  |  |  |  |  |  |  | reduction of the level of CD4 expression after 18-24 h (flow cytometry with non-competing anti-CD4) [2]: 50 to 80%
3 | zanolimumab batch BN078 (antibody) | 89 |  |  |  |  |  |  |  |  |  |  | 
4 | zanolimumab batch GMP#3 (antibody) |  | 0.98 | 1.3 | 1.45 | 1.24 | 1.12 | 1.12 | 1.12 | 0.91 | 0.92 | 0.92 | Relative potency (ADCC), relative to batch GMP#3 (relative to GMP#3) [4]: 1; relative potency (FcγRIIIa176V binding), related to parent batch GMP#3 (relative to GMP#3) [5]: 1
5 | zanolimumab batch MOCK-GMP#3-CD4 (sham-de-glycosylated) (antibody) |  | 1.38 | 1.55 | 1.42 | 1.45 | 1.23 | 1.23 | 1.23 | 0.98 | 0.85 | 0.92 | Relative potency (ADCC), relative to batch GMP#3 (relative to GMP#3) [4]: 1.17; relative potency (FcγRIIIa176V binding), related to parent batch GMP#3 (relative to GMP#3) [5]: 1.09
6 | zanolimumab batch MOCK-MRS-CD4 (sham-deglycosylated) (antibody) | 81 |  |  |  |  |  |  |  |  |  |  | 

Further lines, with some results ahead:

Row | binding capacity (% of the reference batch) (% of reference batch MRS-CD4-001) [3] | Relative potency (ADCC), Exp 1 (relative to MRS-CD4-001) [4] | Relative potency (ADCC), Exp 2 (relative to MRS-CD4-001) [4] | Relative potency (ADCC), Exp (third) (relative to MRS-CD4-001) [4] | Relative potency (ADCC), mean (relative to MRS-CD4-001) [4] | relative potency (FcγRIIIa176V binding), Exp 1 (relative to MRS-CD4-001) [5] | relative potency (FcγRIIIa176V binding), Exp 2 (relative to MRS-CD4-001) [5] | relative potency (FcγRIIIa176V binding), mean (relative to MRS-CD4-001) [5] | relative potency (sCD4 binding), Exp 1 (relative to MRS-CD4-001) (sCD4) | relative potency (sCD4 binding), Exp 2 (relative to MRS-CD4-001) (sCD4) | relative potency (sCD4 binding), mean (relative to MRS-CD4-001) (sCD4) | Substance | other results
7 | 88 |  |  |  |  |  |  |  |  |  |  | zanolimumab batch BO118 (antibody) | 
8 | 84 |  |  |  |  |  |  |  |  |  |  | zanolimumab batch MEV005 (antibody) | 
9 |  | 1 | 1 | 1 | 1 | 1 | 1 | 1 | 1 | 1 | 1 | zanolimumab batch MRS-CD4-001 (antibody) | 
10 |  |  |  |  |  |  |  |  | 0.96 | 1.01 | 0.99 | zanolimumab batch UNG-GMP#3-CD4 (de-glycosylated) (antibody) | 
11 |  | 0.14 | 0.64 | 0.39 | 0.39 | 0.5 | 0.6 | 0.55 | 1.03 | 0.9 | 0.97 | zanolimumab mixed batch M50-GMP#3-CD4 (antibody) | Relative potency (ADCC), relative to batch GMP#3 (relative to GMP#3) [4]: 0.31; relative potency (FcγRIIIa176V binding), related to parent batch GMP#3 (relative to GMP#3) [5]: 0.49
12 | 53 |  |  |  |  |  |  |  |  |  |  | zanolimumab mixed batch M50-MRS-CD4 (antibody) | 
13 | 75 |  |  |  |  |  |  |  |  |  |  | zanolimumab mixed batch M90-MRS-CD4 (antibody) | relative potency (relative to MRS-CD4-001) [5]: 0.7
